From paper PMC11618457
Numbering of substitutions follows the chain as printed. Read-outs that look alike come from different tables or passages of the source.

T1: Zur(Zn) D49A Cy5-C113 (Escherichia coli, UniProt P0AC51 1-171, C17S;D49A;C152S;C158S)
T1 sequence: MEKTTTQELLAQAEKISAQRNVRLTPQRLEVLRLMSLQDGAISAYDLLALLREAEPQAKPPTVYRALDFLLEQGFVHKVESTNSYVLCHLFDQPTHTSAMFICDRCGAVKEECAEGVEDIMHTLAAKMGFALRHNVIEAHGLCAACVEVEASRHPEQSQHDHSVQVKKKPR

T2: Zur(Zn) Cy5-C113 (Escherichia coli, UniProt P0AC51 1-171, C17S;C152S;C158S)
T2 sequence: T1 sequence with A49D

T3: Zur(Zn) Cy5-C158 (Escherichia coli, UniProt P0AC51 1-171, C17S;C113S;C152S)
T3 sequence: T1 sequence with A49D, C113S, S158C

B1: 22-bp truncated znuCB DNA (one dyad) (dsDNA)
DNA 1: AGAAGTGTGATATTATAACATT
DNA 2: AATGTTATAATATCACACTTCT
B2: 31-bp znuCB promoter DNA (dsDNA)
DNA 1: AGAAGTGTGATATTATAACATTTCATGACTA
DNA 2: TAGTCATGAAATGTTATAATATCACACTTCT

Key:
Test in all cases: smFRET
Zur(Zn) D49A Cy5-C113 [1] = target: T1, Zur(Zn) D49A Cy5-C113
Zur(Zn) Cy5-C113 [2] = target: T2, Zur(Zn) Cy5-C113
Zur(Zn) Cy5-C158 = target: T3, Zur(Zn) Cy5-C158
Zur(Zn) D49A Cy5-C113 [3] = target: T1, Zur(Zn) D49A Cy5-C113; remark: listed apart in the source
Zur(Zn) Cy5-C113 [4] = target: T2, Zur(Zn) Cy5-C113; remark: listed apart in the source

Binder | binding result (Zur(Zn) D49A Cy5-C113 [1]) | binding result (Zur(Zn) Cy5-C113 [2]) | binding result (Zur(Zn) Cy5-C158) | binding result (Zur(Zn) D49A Cy5-C113 [3]) | binding result (Zur(Zn) Cy5-C113 [4])
B1 | binds | binds | binds | – | –
B2 | – | – | – | binds | binds
